T1: Cynomolgus CHOK1SV/CD40
T1 construct: also called Cyno CD40 full-length; CD4001013
T1 receptor chain: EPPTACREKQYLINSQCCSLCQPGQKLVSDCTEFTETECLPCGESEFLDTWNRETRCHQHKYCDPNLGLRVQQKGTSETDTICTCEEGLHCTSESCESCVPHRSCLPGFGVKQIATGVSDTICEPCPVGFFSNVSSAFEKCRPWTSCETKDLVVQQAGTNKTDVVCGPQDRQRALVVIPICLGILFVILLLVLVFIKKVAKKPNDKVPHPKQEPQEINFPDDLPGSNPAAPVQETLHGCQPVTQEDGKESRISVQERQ


Tests used:
human CD40 ECD- HAC tag = target: T2, human CD40 ECD- HAC tag (human); experiment: SPR (Biacore T200), bispecific captured on the chip, monovalent CD40 ECD injected
T2 construct: also called CD4001006; recombinant monomeric human CD40 ectodomain (ECD)

Cynomolgus CHOK1SV/CD40 = target: T1, Cynomolgus CHOK1SV/CD40; experiment: flow cytometry, CHOK1SV/cynomolgus CD40 cells
Human PD-L1 full-length = target: T3, Human PD-L1 full-length (human, UniProt Q9NZQ7 19-290); experiment: flow cytometry, CHOK1SV/human PD-L1 cells
T3 construct: also called PDL01021; CHOK1SV/huPDL1
T3 sequence (Q9NZQ7 19-290): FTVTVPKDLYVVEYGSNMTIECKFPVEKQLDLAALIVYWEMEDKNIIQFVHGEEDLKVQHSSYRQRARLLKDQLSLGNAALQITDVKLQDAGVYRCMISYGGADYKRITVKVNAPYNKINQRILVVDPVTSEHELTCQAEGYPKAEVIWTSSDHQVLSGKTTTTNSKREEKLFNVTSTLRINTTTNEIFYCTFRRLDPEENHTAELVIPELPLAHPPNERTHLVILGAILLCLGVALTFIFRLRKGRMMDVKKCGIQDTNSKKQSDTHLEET

human CD40 full-length [1] = target: T4, human CD40 full-length (human, UniProt P25942 21-277); experiment: flow cytometry, Daudi cells (endogenous CD40)
T4 construct: Also used for CD40 of Daudi cells, of CD40-expressing HEK293 cells and of the BPS CD40/NFkB HEK293 reporter cells where the row says so; also called CD4001012; CHOK1SV/CD40

human CD40 full-length [2] = target: T4, human CD40 full-length; experiment: on-cell binding
human CD40 full-length [3] = target: T4, human CD40 full-length; experiment: flow cytometry, CHOK1SV/human CD40 cells

Row | Binder | Kd (human CD40 ECD- HAC tag) | koff (human CD40 ECD- HAC tag) | kon (human CD40 ECD- HAC tag) | binding result (Cynomolgus CHOK1SV/CD40) | binding result (Human PD-L1 full-length) | binding result (human CD40 full-length [1]) | binding result (human CD40 full-length [2]) | binding result (human CD40 full-length [3])
1 | CD4001152 (Fc fusion, Humanized 1D5 scFv variant, as told of in Fc-scFv format; not shown: the human Fc and any Fc-scFv linker; neither the Fc entry nor the scFv position (N- or C-terminal) is fixed for this construct) scFv: QIVMTQSPDSLALSLGERATMNCKSSQSLLFSVNQKNYLAWYQQKPGQAPRLLIYWASTRESGVPDRFSGSGSGTDFTLTISRLEPEDVATYYCQHYYSYPWTFGAGTKLEIKGGGGSGGGGSGGGGSGGGGSQVQLVQSGAEVKKPGASVKVSCKASGYTFSTSWIEWVRQAPGQGLEWIGEILPGSGSTNYAQKFQGRATFTADTSTSTAYMELSSLRSEDTAVYYCARGDDGSYVRWYFDVWGQGTTVTVSS | – | – | – | – | – | – | no binding | –
2 | CD4001163 (Fc fusion, As m85; not shown: Fc (hinge-CH2-CH3) and any Fc-scFv linker of the tested fusion) scFv: QIVMTQSPDSLAVSLGERATINCKSSQSLLFSVNQKNYLAWYQQKPGQAPRLLIYWASTRESGVPDRFSGSGSGTDFTLTISRLEPEDVATYYCQHYYSYPWTFGAGTKVEIKGGGGSGGGGSGGGGSGGGGSQVQLVQSGAEVKKPGASVKVSCKASGYTFSTSWMEWVRQAPGQGLEWMGEILPGSGSTNYAQKFQGRVTMTRDTSTSTVYMELSSLRSEDTAVYYCARGDDGSYVRWYFDVWGQGTTVTVSS | – | – | – | – | – | – | no binding | –
3 | CD4001103 (Fc fusion, As m82; not shown: the human Fc (hinge-CH2-CH3) of the scFv-hFc format) scFv: QIVMTQSPGTLSLSPGERATMTCKSSQSLLFSVNQKNYLAWYQQKPGQAPRLLIYWASTRESGVPDRFSGSGSGTDFTLTISRLEPEDAATYYCQHYYSYPWTFGAGTKLEIKGGGGSGGGGSGGGGSGGGGSQVKLVQSGAEVKKPGASVKVSCKASGYTFSTSWIEWIRQAPGQGLEWIGEILPGSGSTNYAQKFQGRATFTADTSTSTAYMELSSLRSEDTAVYYCARGDDGSYVRWYFDVWGQGTTVTVSS | – | – | – | – | – | – | – | binds

Now from value to binder:

Row | Kd (human CD40 ECD- HAC tag) | koff (human CD40 ECD- HAC tag) | kon (human CD40 ECD- HAC tag) | binding result (Cynomolgus CHOK1SV/CD40) | binding result (Human PD-L1 full-length) | binding result (human CD40 full-length [1]) | binding result (human CD40 full-length [2]) | binding result (human CD40 full-length [3]) | Binder
4 | 81 nM | 0.00059 s⁻¹ | 7300 M⁻¹ s⁻¹ | binds | binds | binds | – | – | PC401144 (bispecific antibody) DIQMTQSPSSLSASVGDRVTITCRASQDINKFLSWYQQKPGKAPKLLIHYTSSLQSGVPSRFSGSGSGTDFTLTISSLQPEDFATYYCLQYDNLYTFGQGTKLEIKGGGGSGGGGSGGGGSGGGGSEVQLVESGGGLVQPGGSLRLSCAASGFTFSDYGMAWVRQAPGKGLEWVSFITSLAYIIYYADSVKGRFTISRDNAKNSLYLQMNSLRAEDTAVYYCARNYGSSPYYFDYWGQGTLVTVSSEPKSSDKTHTCPPCPAPPAAAPSVFLFPPKPKDTLMISRTPEVTCVVVDVSHEDPEVKFNWYVDGVEVHNAKTKPREEQYNSTYRVVSVLTVLHQDWLNGKEYKCAVSNKALPAPIEKTISKAKGQPREPQVYTLPPSRDELTKNQVSLTCLVKGFYPSDIAVEWESNGQPENNYKTTPPVLDSDGSFFLYSKLTVDKSRWQQGNVFSCSVMHEALHNHYTQKSLSLSPGGGGSPSDIQMTQSPSSVSASVGDRVTITCRASQSLTFSVNQKNYLAWYQQKPGKAPKLLIYWASSLQSGVPSRFSGSGSGTDFTLTISSLQPEDFATYYCQHYYSYPWTFGCGTKVEIKGGGGSGGGGSGGGGSGGGGSQVQLVQSGAEVKKPGSSVKVSCKASGYTFSTSWIEWIRQAPGQCLEWMGSILPGSGSTNYNQKFQGRVTITADTSTSTAYMELSSLRSEDTAVYYCARGDDGSYNRWYFDHWGQGTLVTVSS
5 | 81 nM | 0.00061 s⁻¹ | 7600 M⁻¹ s⁻¹ | binds | binds | binds | – | – | PC401145 (bispecific antibody) DIQMTQSPSSLSASVGDRVTITCRASQDINKFLSWYQQKPGKAPKLLIHYTSSLQSGVPSRFSGSGSGTDFTLTISSLQPEDFATYYCLQYDNLYTFGQGTKLEIKGGGGSGGGGSGGGGSGGGGSEVQLVESGGGLVQPGGSLRLSCAASGFTFSDYGMAWVRQAPGKGLEWVSFITSLAYIIYYADSVKGRFTISRDNAKNSLYLQMNSLRAEDTAVYYCARNYGSSPYYFDYWGQGTLVTVSSEPKSSDKTHTCPPCPAPPAAAPSVFLFPPKPKDTLMISRTPEVTCVVVDVSHEDPEVKFNWYVDGVEVHNAKTKPREEQYNSTYRVVSVLTVLHQDWLNGKEYKCAVSNKALPAPIEKTISKAKGQPREPQVYTLPPSRDELTKNQVSLTCLVKGFYPSDIAVEWESNGQPENNYKTTPPVLDSDGSFFLYSKLTVDKSRWQQGNVFSCSVMHEALHNHYTQKSLSLSPGGGGSPSDIQMTQSPSSVSASVGDRVTITCRASQSLLFSVNQKNYLAWYQQKPGKAPKLLIYWASSLQSGVPSRFSGSGSGTDFTLTISSLQPEDFATYYCQHYYSYPWTFGCGTKVEIKGGGGSGGGGSGGGGSGGGGSQVQLVQSGAEVKKPGSSVKVSCKASGYTFSTSWIEWIRQAPGQCLEWMGSILPGSGSTNYNQKFQGRVTITADTSTSTAYMELSSLRSEDTAVYYCARGDDGSYNRWYFDHWGQGTLVTVSS
